Assay results: paper PMC12167799, “The role of human Shu complex in ATP-dependent regulation of RAD51 filaments during homologous recombination–associated DNA damage response” (The Journal of Biological Chemistry, 2025)

Substrate: Nc1ncnc2c1ncn2[C@@H]1O[C@H](COP(=O)(O)OP(=O)(O)OP(=O)(O)O)[C@@H](O)[C@H]1O
Assay: malachite green ATPase assay, Michaelis-Menten fit
Format: biochemical, Homo sapiens
Conditions: 1 μM protein, no DNA (basal activity), 37 °C
From the text: malachite green ATPase assay, Michaelis-Menten fit on hSWS1-SWSAP1 (human Shu complex)

B1: hSWS1-SWSAP1 (human Shu complex) (Homo sapiens) (protein)
chain: MPAAGPPLLLLGTPGSGKTALLFAAALEAAGEGQGPVLFLTRRPLQSMPRGTGTTLDPMRLQKIRFQYPPSTRELFRLLCSAHEAPGPAPSLLLLDGLEEYLAEDPEPQEAAYLIALLLDTAAHFSHRLGPGRDCGLMVALQTQEEAGSGDVLHLALLQRYFPAQCWLQPDAPGPGEHGLRACLEPGGLGPRTEWWVTFRSDGEMMIAPWPTQAGDPSSGKGSSSGGQP
notes: heterodimer co-expressed in High Five insect cells (baculovirus); SWSAP1 with TEV-cleavable N-terminal 6xHis tag (cleaved), SWS1 untagged; with Zinc finger SWIM domain-containing protein 7
Work on B1 yielded a Km of 10.0 ± 0.2 mM, a Vmax of 0.75 µM/min and a kcat of 0.0125 s⁻¹. For the same protein, the kcat/Km was 1.3 M⁻¹ s⁻¹.
